Results taken from patent US20230088269A1 (ARGENX BVBA, published 2023).
Numbering of substitutions follows the chain as printed. Names and notes keep the numbering of the source.

Key:
[1] = target: T1, recombinant human IL-22R (R&D Systems / Biotechne 2770-LR) (human, UniProt Q8N6P7 16-228); assay: SPR (Biacore), purified Fab
T1 construct: Bought soluble recombinant protein (said to be 25 kDa); also called hIL22R; IL-22R1
T1 sequence: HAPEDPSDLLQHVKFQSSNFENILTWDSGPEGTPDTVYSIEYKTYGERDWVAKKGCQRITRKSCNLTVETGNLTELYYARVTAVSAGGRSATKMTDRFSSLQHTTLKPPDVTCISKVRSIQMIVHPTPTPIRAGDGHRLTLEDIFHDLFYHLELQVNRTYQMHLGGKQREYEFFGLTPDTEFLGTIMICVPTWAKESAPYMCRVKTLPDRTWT

[2] = target: T2, recombinant mouse IL22R (monomeric, R&D Systems cat 4248-MR) (mouse, UniProt Q80XZ4 16-230); assay: SPR (Biacore), purified Fab
T2 construct: extracellular domain; also called murine IL-22R; mIL22R
T2 sequence (looked up): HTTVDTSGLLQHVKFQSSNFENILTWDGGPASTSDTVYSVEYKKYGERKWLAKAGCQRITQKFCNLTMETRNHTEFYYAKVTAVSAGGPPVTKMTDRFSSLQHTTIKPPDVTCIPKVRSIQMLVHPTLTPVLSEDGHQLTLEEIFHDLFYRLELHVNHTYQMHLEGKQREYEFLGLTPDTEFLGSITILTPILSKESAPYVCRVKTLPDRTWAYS

[3] = target: T3, rhIL22R-Fc (rhesus IL22R ECD fused to human Fc) (rhesus monkey, UniProt G7MHN4 16-228); assay: off-rate of Fab fragment; method not stated
T3 construct: also called rhesus IL-22R1
T3 sequence: T1 sequence with S18N, L73H, S99N, T105A, S115P, K167E, A194S, E196K, K205R

[4] = target: T1, recombinant human IL-22R (R&D Systems / …); assay: off-rate of Fab fragment; method not stated; Fab fragment; human IL-22R1
[5] = target: T4, human IL-22R A209D mutant on BW cells (human, UniProt Q8N6P7 16-574); assay: FACS, BW-hIL-22R mutant cells
T4 sequence: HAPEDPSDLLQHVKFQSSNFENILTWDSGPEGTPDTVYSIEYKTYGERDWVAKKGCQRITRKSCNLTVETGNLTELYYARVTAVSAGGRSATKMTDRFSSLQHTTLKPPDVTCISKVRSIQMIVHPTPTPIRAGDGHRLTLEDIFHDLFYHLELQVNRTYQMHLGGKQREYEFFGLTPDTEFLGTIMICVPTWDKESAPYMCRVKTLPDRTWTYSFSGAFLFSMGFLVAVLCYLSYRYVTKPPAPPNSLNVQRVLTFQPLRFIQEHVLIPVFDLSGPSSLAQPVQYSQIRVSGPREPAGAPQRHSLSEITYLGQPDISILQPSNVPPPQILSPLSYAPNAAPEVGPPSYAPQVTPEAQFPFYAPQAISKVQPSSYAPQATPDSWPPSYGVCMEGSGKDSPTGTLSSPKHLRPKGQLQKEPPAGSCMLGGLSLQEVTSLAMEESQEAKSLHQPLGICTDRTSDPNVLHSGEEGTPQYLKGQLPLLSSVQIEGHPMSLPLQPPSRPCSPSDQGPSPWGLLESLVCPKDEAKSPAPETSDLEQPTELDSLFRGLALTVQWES
Experimental: The binding of IL22R antibodies and of the benchmark antibody (280.346.TSY) to BW cells over-expressing various IL22R mutants was tested. The IL22R mutants have mutations of amino acids known to be involved in the IL-22/IL22R interaction. In this setup, the antibodies were biotinylated, added to the cells and binding of the antibody to IL22R was detected with labeled streptavidin by Flow cytometry (FACS).
FACS analysis was also carried out as described in Example 8.2 to study the binding of the germlined antibodies to various IL-22R mutants.

[6] = target: T1, recombinant human IL-22R (R&D Systems / …); assay: SPR (Biacore), hIL22R on CM5 chip, mAb injected, 1:1 Langmuir
Experimental: (§1) The affinity of the 230C9 and 223G5 antibodies was measured using SPR ([…]). In brief, 250RU of human IL22R (Biotechne, 2770-LR) was coated onto a CM5 chip using standard methods (EDC coupling of IL22R at a concentration of 2 μg/ml in acetate buffer pH4.5). Then various concentrations of antibody were injected in HBSEP+ buffer (pH 7.4) for 2 minutes. The binding was monitored also during a 10 min washing (HBSEP+).

[7] = target: T1, recombinant human IL-22R (R&D Systems / …); assay: SPR (Biacore), hIL22R on CM5 chip, mAb injected; rounded range told of 223G5 and 224C4
Experimental: as §1

[8] = target: T5, human IL-22R expressed on cells (BW-hIL22R, Baf3-hIL22R/IL20Rb, transfected HEK, primary human skin cells) (human, UniProt Q8N6P7 16-574); assay: cell-based or functional assay
T5 sequence: T4 sequence with D194A

[9] = target: T5, human IL-22R expressed on cells …; assay: cell-based or functional assay; remark: listed apart in the source
[10] = target: T2, recombinant mouse IL22R (monomeric, R&D …); assay: summary table of cross-reactivity, mAb, column m = mouse
[11] = target: T5, human IL-22R expressed on cells …; assay: cell-based or functional assay; remark: listed apart in the source
[12] = target: T6, cynomolgus monkey IL-22R in ex vivo skin biopsies (cynomolgus monkey, UniProt A0A2K5TKX9 16-573); assay: cell-based or functional assay
T6 sequence: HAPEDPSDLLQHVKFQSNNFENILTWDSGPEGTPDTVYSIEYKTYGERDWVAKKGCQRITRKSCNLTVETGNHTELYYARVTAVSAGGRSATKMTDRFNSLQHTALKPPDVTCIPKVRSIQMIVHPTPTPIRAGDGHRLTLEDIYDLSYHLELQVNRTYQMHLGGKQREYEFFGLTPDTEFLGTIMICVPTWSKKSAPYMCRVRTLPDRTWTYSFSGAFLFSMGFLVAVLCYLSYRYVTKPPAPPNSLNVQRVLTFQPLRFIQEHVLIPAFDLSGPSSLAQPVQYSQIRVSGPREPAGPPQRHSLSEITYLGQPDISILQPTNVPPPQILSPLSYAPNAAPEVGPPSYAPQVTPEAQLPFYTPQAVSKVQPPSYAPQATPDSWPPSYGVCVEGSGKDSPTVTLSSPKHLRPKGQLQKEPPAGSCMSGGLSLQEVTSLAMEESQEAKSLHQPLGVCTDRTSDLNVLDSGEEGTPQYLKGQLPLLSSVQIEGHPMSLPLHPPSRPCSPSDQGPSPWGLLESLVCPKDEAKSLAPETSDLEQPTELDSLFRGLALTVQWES

[13] = target: T5, human IL-22R expressed on cells …; assay: cell-based or functional assay; remark: listed apart in the source
[14] = target: cynoIL22R_ECD-humanTM_humanICD chimera on transfected cells (cynomolgus monkey; human, UniProt Q8N6P7 229-574); assay: cell-based or functional assay
[15] = target: rhesus IL22R ECD - human TM - human ICD chimera on transfected HEK cells (rhesus monkey; human, UniProt Q8N6P7 229-574); assay: cell-based or functional assay
[16] = target: T5, human IL-22R expressed on cells …; assay: cell-based or functional assay; remark: listed apart in the source
[17] = target: T1, recombinant human IL-22R (R&D Systems / …); assay: SPR (Biacore), mAb on chip, monomeric hIL22R injected, 1:1 Langmuir
Experimental: Because of the potential avidity effect observed when a bivalent molecule is used as a ligand during affinity measurement, a reverse experimental setup was tested. In this set-up, the antibodies were coated to 250RU using standard methods. Monomeric human IL22R was added at different concentrations, and the affinities calculated using the BIAevaluation software using a Langmuir 1:1 fitting are shown in Table 21 below.

B1: 166G8 Fab (Fab, V domains shown)
VH: QVQLVESGGGLVQPGDSLRLSCAASGFTFGSYFMSWVRQAPGKGPEWVSGIHISGGITYYLDSVKGRFTISRDNAKNTLYLQMNNLKPEDTAVYYCVTPPGPFKAHYNGMKYWGKGTLVTVSS
VL: NFMLTQPPSVSGTLGKTVTISCTGTSRDIGDYNYVSWYQQLPGLAPKLLIYKVNTRSSGTPDRFSGSKSGNTASLTISGLQSEDEADYYCASYRLYADYVFGGGTHLTVL
notes: VH family 5; purified llama Fab
koff [1]: 0.00088 s⁻¹
binding result [2]: no binding
koff [3]: 0.0222 s⁻¹
koff [4]: 0.00122 s⁻¹

B2: 223G5 mAb (antibody, human IgG1, lambda, N297Q, V domains shown)
VH: B1 VH with D16G, G30S, L61T, N85S, K87R, P88A, M110A
VL: QSALTQPPSVSGSPGQSVTISCTGTSSDIGSYNYVSWYQQLPGKAPKLLIYEVNKRSSGVPDRFSGSKSGNTASLTISGLQAEDEADYYCASYRLYADYVFGGGTQLTVLG
notes: Germlined variant of 166G8; also called 223G5-N297Q
binding result [5]: no binding
Kd [6]: 0.016 nM
koff [6]: 0.0001 s⁻¹
kon [6]: 6.6e+06 M⁻¹ s⁻¹
Kd [7]: 0.01 to 0.02 nM

B3: 218A7 mAb (antibody, V domains shown)
VH: QVQLVESGGGLVQPGGSLRLSCAASGFTFSSYDMSWVRQAPGKGLEWVSSIYNDGSNTAYSDSVKGRFTISRDNAKNTLYLQMNSLKSEDTAVYYCAKVGFSGTYYSESWGQGTQVTVSS
VL: LPVLTQPSAVSVSLGQTARITCQGGYYAHWYQQKPGQAPVLVIYGQNNRPSGIPERFSGSGAGNTATLTISGAQAEDEAEYYCQSGSSSANAVFGGGTKLTVL
notes: VH family 4; light chain shuffled variant of 157A2, not germlined
IC50 blocking IL-22 (pM), BW hIL22R proliferation [8]: 360 pM
IC50 blocking IL-22 (nM), BWhIL22R cell line [9]: 0.28 nM
Relative potency to 280.346.TSY (IL-22, BWhIL22R cell line) [9]: 2.5 fold
binding result [10]: no binding

B4: 230C9 mAb (antibody, human IgG1, lambda, N297Q, V domains shown)
VH: B3 VH with S35N, G55A, A75S, K87R, S88A, Q115L
VL: SYELTQPSSVSVALGQTARITCQGGYYAHWYQQKPGQAPVLVIYGQNNRPSGIPERFSGSGAGNTATLTISRAQAEDEADYYCQSGSSSSNAVFGGGTKLTVLG
notes: Germlined variant of 218A7; also called 230C9-N297Q; 230C9 N297Q
EC50, inhibition of CCL2 levels in primary human keratinocytes stimulated with IL-4, IL-13, IL-22 and IFN-gamma [11]: 0.1 nM
EC50, reduction of rhIL-22 induced DEFB4 mRNA in human ex vivo skin explants [11]: 4 nM
EC50, block of rhIL-22 down-regulation of FLG2 and LOR mRNA in cynomolgus skin biopsies [12]: 11 nM
IC50 blocking IL-22 (nM), BWhIL22R cell line [9]: 0.56 nM
Relative potency to 280.346.TSY (IL-22, BWhIL22R cell line) [9]: 1.2 fold
IC50 blocking IL-20 (nM), Baf3hIL22R/IL20Rb cell line; batch #1 [13]: 0.781 nM
IC50 blocking IL-20 (nM), Baf3hIL22R/IL20Rb cell line; batch #2 [13]: 0.567 nM
Relative potency to 280.346.TSY (IL-20); batch #1 [13]: 1.9 fold
Relative potency to 280.346.TSY (IL-20); batch #2 [13]: 2.6 fold
EC50 (nM), STAT3-reporter in HEK cells after human IL22, Cyno ECD [14]: 0.57 nM
EC50 (nM), STAT3-reporter in HEK cells after human IL22, Rhesus ECD [15]: 0.48 nM
EC50 (nM), STAT3-reporter in HEK cells after human IL22, Human ECD [16]: 0.28 nM
Kd [6]: 0.13 nM
koff [6]: 8.9e-05 s⁻¹
kon [6]: 680000 M⁻¹ s⁻¹
Kd [17]: 0.22 nM
koff [17]: 0.00022 s⁻¹
kon [17]: 920000 M⁻¹ s⁻¹
